This data set concerns the molecule itself. In words: cryo-EM structure.

B1: Human ASCT2 (Alanine-Serine-Cysteine Transporter 2, SLC1A5) (natural protein)
chain: MVADPPRDSKGLAAAEPTANGGLALASIEDQGAAAGGYCGSRDQVRRCLRANLLVLLTVVAVVAGVALGLGVSGAGGALALGPERLSAFVFPGELLLRLLRMIILPLVVCSLIGGAASLDPGALGRLGAWALLFFLVTTLLASALGVGLALALQPGAASAAINASVGAAGSAENAPSKEVLDSFLDLARNIFPSNLVSAAFRSYSTTYEERNITGTRVKVPVGQEVEGMNILGLVVFAIVFGVALRKLGPEGELLIRFFNSFNEATMVLVSWIMWYAPVGIMFLVAGKIVEMEDVGLLFARLGKYILCCLLGHAIHGLLVLPLIYFLFTRKNPYRFLWGIVTPLATAFGTSSSSATLPLMMKCVEENNGVAKHISRFILPIGATVNMDGAALFQCVAAVFIAQLSQQSLDFVKIITILVTATASSVGAAGIPAGGVLTLAIILEAVNLPVDHISLILAVDWLVDRSCTVLNVEGDALGAGLLQNYVDRTESRSTEPELIQVKSELPLDPLPVPTEEGNPLLKHYRGPAGDATVASEKESVM
The stoichiometry N is the number of molecules, sites or subunits per partner or assembly. As to B1, the “stoichiometry N” value is 3.
